Source: the supplement of paper PMC10724198
± gives the standard deviation of the averaged measurements.

Test system: Saccharomyces cerevisiae
Assay: protein stability index of tFT-peptide fusion (C-terminal peptide) (PSI (0-1 scale)); higher = more stable (slower turnover)
Details: genetic background: wild type; temperature: 30 C
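Also: PSI is a weighted mean of sequencing reads over stability bins, variants kept only with over 10 reads, mCherry proximal and sfGFP distal, peptide attached via GGGS linker.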

Sequence	protein stability index
SLPAPRLGCIPC	0.64 ± 0.044
SLPFCFIPVAPF	0.756 ± 0.058
SLPGPRTELPLA	0.644 ± 0.034
SLPLLSLPLLDF	0.535 ± 0.02
SLPPHHLLISNA	0.645 ± 0.028
SLPPPSSHPPPL	0.7 ± 0.09
SLPQYPSGPTLT	0.709 ± 0.029
SLQEIWRSKAKV	0.676 ± 0.054
SLRESTPFCSRP	0.553 ± 0.18
SLRLSRFLLTAP	0.5536 ± 0.0031
SLRPPSTFRRSC	0.71 ± 0.019
SLRPRPSLFPPP	0.7196 ± 0.00099
SLSPLLVILANL	0.613 ± 0.05
SLSTSFSSRPPS	0.704 ± 0.089
SLTAPPNLASPW	0.705 ± 0.089
SLTENRGRKKKK	0.664 ± 0.0082
SLVLLNQHARER	0.79 ± 0.036
SLVLRPTGILLI	0.536 ± 0.019
SLWRLKESYRQS	0.673 ± 0.039
SLWTDALFLCLT	0.727 ± 0.19
SMVGCVKTPIEQ	0.659 ± 0.023
SMVGYPLPVSRN	0.671 ± 0.039
SMVRYNDFPRPL	0.689 ± 0.081
SNNWLEKTGAMT	0.659 ± 0.03
SNPCLPPPSFAS	0.77 ± 0.019
SNPFPTILSSSS	0.736 ± 0.037

Sequence	protein stability index
SNQKLLGQDIDN	0.659 ± 0.024
SNRSAPWSRFSL	0.68 ± 0.038
SNTKLIGLIVIG	0.539 ± 0.043
SNTKPTCSNQQS	0.688 ± 0.077
SPAQLSYLFPAP	0.7928 ± 0.0039
SPARLRHSLSLP	0.723 ± 0.014
SPASPPPPSPLL	0.695 ± 0.028
SPCRAGRPAGLR	0.729 ± 0.071
SPCSSDPLYSFA	0.762 ± 0.069
SPEPSFPPLLLP	0.715 ± 0.015
SPFPAWPIPASV	0.612 ± 0.036
SPFPSPVLPPHT	0.7153 ± 0.006
SPGPRLSTRLRQ	0.701 ± 0.077
SPIRLPATSPSR	0.639 ± 0.046
SPKDKARMQKQS	0.602 ± 0.063
SPLFFPSSPPYP	0.751 ± 0.023
SPLHLFHPPLLH	0.729 ± 0.023
SPLNLRIPGAPT	0.675 ± 0.034
SPLPHRLFPFWS	0.79 ± 0.015
SPLPLLRPPSSH	0.593 ± 0.047
SPLPSSPRSVPP	0.744 ± 0.094
SPLPYTPPLRAF	0.5238 ± 0.0029
SPLSLPSPATFP	0.688 ± 0.05
SPLSRSRPKSYL	0.75 ± 0.072
SPLSSSDGSAAI	0.73 ± 0.022
SPPALPPFLAPL	0.72 ± 0.1

Sequence	protein stability index
SPPCPPPHPHPP	0.597 ± 0.012
SPPCRTYFAECD	0.713 ± 0.053
SPPGPNQVARPP	0.6873 ± 0.0057
SPPHPPPRPPLL	0.733 ± 0.041
SPPLPPPSPTPP	0.699 ± 0.016
SPPLSLPPPGQS	0.671 ± 0.073
SPPLVFPTLLPL	0.7101 ± 0.0029
SPPPHPPLRFLP	0.667 ± 0.049
SPPPHSTPSSTG	0.712 ± 0.054
SPPPIPPPPPSR	0.726 ± 0.042
SPPPLPPPLSRP	0.638 ± 0.067
SPPPLPPPTLPT	0.791 ± 0.084
SPPPLPPTPPPL	0.7135 ± 0.0055
SPPPLPSPSPPP	0.687 ± 0.044
SPPPPLHPALPA	0.656 ± 0.083
SPPPPPPAPPPP	0.664 ± 0.042
SPPPPPPPLPPA	0.731 ± 0.037
SPPPRHLLSPRH	0.697 ± 0.0077
SPPPSSPPAPPR	0.717 ± 0.11
SPPRLPTPPPLR	0.705 ± 0.022
SPPRPPAPPSPT	0.701 ± 0.014
SPPRPPCLPLTP	0.713 ± 0.048
SPPSPLALSLRF	0.707 ± 0.025
SPPSPLYFCSRF	0.661 ± 0.015
SPPSPPALTPSP	0.643 ± 0.048
SPRLDPLFRSPP	0.712 ± 0.017

Sequence	protein stability index
SPRNIVFQPLSP	0.622 ± 0.069
SPRRPPQHPTLL	0.65 ± 0.016
SPRTVCPELHFI	0.691 ± 0.044
SPRVLSLLLRSM	0.5811 ± 0.0036
SPRWAPPLPAWP	0.712 ± 0.014
SPSLSFPGIPLF	0.673 ± 0.052
SPSPALPPRIRF	0.818 ± 0.15
SPSPHSPHPTPH	0.738 ± 0.085
SPSPPPRRYLPL	0.757 ± 0.073
SPSPQPLRRAHP	0.698 ± 0.043
SPSPSPPPAISI	0.657 ± 0.015
SPSSRTTNTHPA	0.694 ± 0.11
SPTAHAPALPSP	0.692 ± 0.049
SPTPPTAPPSPL	0.699 ± 0.015
SPTRNLPPFPPP	0.723 ± 0.054
SPVPPSPAPLLI	0.673 ± 0.018
SPVPRIRPPPLL	0.699 ± 0.053
SPVSPTSNSPAC	0.649 ± 0.085
SQCNRGSWRSPS	0.645 ± 0.0073
SQMCHREESVTV	0.712 ± 0.004
SQPRRELGRPRG	0.662 ± 0.022
SQSEGTLELINK	0.679 ± 0.043
SQTKRINSEKNN	0.654 ± 0.039
